Laboratory results reported in patent publication US20230416365A1 (Hoffmann-La Roche, published 2023).
Each block holds one binder with its values, some of them ahead of it.

Experiments:
[1] = target: T1, human CEA (CEACAM5) on cells (MKN45 cells; MV3 cells engineered to express human CEACAM5) (human, UniProt P06731 35-685); test: flow cytometry on MV3 cells modified to express CEA
T1 sequence: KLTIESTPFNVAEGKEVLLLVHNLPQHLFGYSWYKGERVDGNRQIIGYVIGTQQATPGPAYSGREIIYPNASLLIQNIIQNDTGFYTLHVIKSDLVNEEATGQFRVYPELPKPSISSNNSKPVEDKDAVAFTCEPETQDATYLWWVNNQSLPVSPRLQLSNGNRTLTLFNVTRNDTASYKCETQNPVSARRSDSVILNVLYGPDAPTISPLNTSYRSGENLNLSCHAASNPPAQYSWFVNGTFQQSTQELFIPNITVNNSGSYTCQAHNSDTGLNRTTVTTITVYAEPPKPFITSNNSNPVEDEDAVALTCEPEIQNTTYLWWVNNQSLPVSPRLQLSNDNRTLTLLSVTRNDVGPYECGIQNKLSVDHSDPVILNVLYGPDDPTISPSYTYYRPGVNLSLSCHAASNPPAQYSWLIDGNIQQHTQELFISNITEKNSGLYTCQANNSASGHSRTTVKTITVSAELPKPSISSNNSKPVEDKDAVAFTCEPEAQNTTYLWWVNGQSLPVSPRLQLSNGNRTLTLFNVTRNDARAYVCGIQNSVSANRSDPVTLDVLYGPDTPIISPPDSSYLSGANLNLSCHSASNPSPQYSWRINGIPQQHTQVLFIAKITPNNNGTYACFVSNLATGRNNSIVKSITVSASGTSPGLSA

[2] = target: T2, biotinylated huCD28-Fc (dimeric CD28-Fc construct with a monovalent biotinylated avi-tag) (human, UniProt P10747 19-152, biotinylated at the C-terminal avi tag); test: SPR, ProteOn XPR36, huCD28-Fc immobilised, bispecific as analyte
T2 construct: not shown: hum IgG1 Fc fragment with hole and PG-LALA mutations; hum IgG1 Fc fragment with knob and PG-LALA mutations

[3] = target: T2, biotinylated huCD28-Fc (dimeric CD28-Fc …); test: SPR, ProteOn XPR36, huCD28-Fc on NLC chip, bispecific as analyte
[4] = target: T3, human CD28 on CHO cells (parental cell line CHO-k1 ATCC #CCL-61, modified to stably overexpress human CD28) (human, UniProt P10747 19-220); test: flow cytometry on CHO cells stably expressing human CD28, FAP-CD28 1+1 constructs, MFI (PE)
T3 construct: also called hu CD28; CHO-hCD28

[5] = target: T4, human FAP on 3T3-huFAP cells (clone 19) (human, UniProt Q12884 1-760); test: flow cytometry on 3T3-huFAP cells, FAP-CD28 1+1 constructs, MFI (PE)
[6] = target: T3, human CD28 on CHO cells (parental cell …); test: binding to CHO cells expressing human CD28 (by the table's title)
[7] = target: T3, human CD28 on CHO cells (parental cell …); test: flow cytometry on CHO-hCD28 cells
[8] = target: T5, human GPRC5D on CHO-hGPRC5D cells (human, UniProt Q9NZD1 1-345); test: flow cytometry on CHO huGPRC5D cells, AF488 anti-human IgG Fc secondary
T5 construct: also called CHO huGPRC5D L2

[9] = target: T4, human FAP on 3T3-huFAP cells (clone 19); test: flow cytometry on 3T3-huFAP cells, median fluorescence intensity (axis MFI APC)
[10] = target: T5, human GPRC5D on CHO-hGPRC5D cells; test: flow cytometry on CHO huGPRC5D cells, PE anti-human IgG Fc secondary

B1: CEA (A5H1EL1D)-CD28 (SA_Variant 15) 1+1 format (Molecule 11C) (bispecific antibody, human IgG1, kappa, L234A L235A)
heavy 1: EIVLTQSPATLSLSPGERATLSCRASSSVTYIHWYQQKPGQAPRSWIYATSNLASGIPARFSGSGSGTDFTLTISSLEPEDFAVYYCQHWSSKPPTFGQGTKLEIKSSASTKGPSVFPLAPSSKSTSGGTAALGCLVKDYFPEPVTVSWNSGALTSGVHTFPAVLQSSGLYSLSSVVTVPSSSLGTQTYICNVNHKPSNTKVDKKVEPKSCDKTHTCPPCPAPEAAGGPSVFLFPPKPKDTLMISRTPEVTCVVVDVSHEDPEVKFNWYVDGVEVHNAKTKPREEQYNSTYRVVSVLTVLHQDWLNGKEYKCKVSNKALGAPIEKTISKAKGQPREPQVCTLPPSRDELTKNQVSLSCAVKGFYPSDIAVEWESNGQPENNYKTTPPVLDSDGSFFLVSKLTVDKSRWQQGNVFSCSVMHEALHNHYTQKSLSLSP
light 1: EVQLLESGGGLVQPGGSLRLSCAASGFTFTDYYMNWVRQAPGKGLEWLGFIGNKANAYTTEYSASVKGRFTISRDKSKNTLYLQMNSLRAEDTATYYCTRDRGLRFYFDYWGQGTTVTVSSASVAAPSVFIFPPSDEQLKSGTASVVCLLNNFYPREAKVQWKVDNALQSGNSQESVTEQDSKDSTYSLSSTLTLSKADYEKHKVYACEVTHQGLSSPVTKSFNRGEC
heavy 2: not shown
light 2: not shown
notes: huIgG1 PG-LALA CrossFab; also called P1AE4775
EC50 [1]: 20.4 nM | Kd [2]: 10 nM | koff [2]: 0.00264 s⁻¹ | kon [2]: 259000 M⁻¹ s⁻¹

B3: GPRC5D (5E11)-CD28 (SA_Variant 15) 1+1 format (Molecule 16A) (bispecific antibody, human IgG1, kappa, L234A L235A)
heavy 1: not shown
light 1: QVQLVQSGAEVKKPGASVKVSCKASGYTFTSYYIHWVRQAPGQGLEWIGSIYPGNVQTNYNEKFKDRATLTVDTSISTAYMELSRLRSDDTAVYFCTRSHYGLDWNFDVWGQGTTVTVSSASVAAPSVFIFPPSDEQLKSGTASVVCLLNNFYPREAKVQWKVDNALQSGNSQESVTEQDSKDSTYSLSSTLTLSKADYEKHKVYACEVTHQGLSSPVTKSFNRGEC
heavy 2: EVQLLESGGGLVQPGGSLRLSCAASGFTFSKYAMAWVRQAPGKGLEWVASISTGGVNTYYADSVKGRFTISRDNSKNTLYLQMNSLRAEDTAVYYCATHTGDYFDYWGQGTMVTVSSASTKGPSVFPLAPSSKSTSGGTAALGCLVEDYFPEPVTVSWNSGALTSGVHTFPAVLQSSGLYSLSSVVTVPSSSLGTQTYICNVNHKPSNTKVDEKVEPKSCDKTHTCPPCPAPEAAGGPSVFLFPPKPKDTLMISRTPEVTCVVVDVSHEDPEVKFNWYVDGVEVHNAKTKPREEQYNSTYRVVSVLTVLHQDWLNGKEYKCKVSNKALGAPIEKTISKAKGQPREPQVCTLPPSRDELTKNQVSLSCAVKGFYPSDIAVEWESNGQPENNYKTTPPVLDSDGSFFLVSKLTVDKSRWQQGNVFSCSVMHEALHNHYTQKSLSLSP
light 2: EIVLTQSPGTLSLSPGERATLSCRASQSVSISGINLMNWYQQKPGQQPKLLIYHASILASGIPDRFSGSGSGTDFTLTISRLEPEDFAVYYCQQTRESPLTFGQGTRLEIKRTVAAPSVFIFPPSDRKLKSGTASVVCLLNNFYPREAKVQWKVDNALQSGNSQESVTEQDSKDSTYSLSSTLTLSKADYEKHKVYACEVTHQGLSSPVTKSFNRGEC
notes: huIgG1 PG-LALA CrossFab; also called P1AF1272
EC50 [7]: 4.7 to 5.2 nM | binding result [8]: binds

Other lines, results leading:

Kd [3]: 5.4 nM | koff [3]: 0.00121 s⁻¹ | kon [3]: 227000 M⁻¹ s⁻¹ | EC50 (read off the curve) [4]: ~3 nM | binding result [5]: binds | Kd [6]: 5.4 nM
B2: FAP (4B9) - CD28 (CD28(SA)_Variant 27) 1+1 (bispecific antibody, human IgG1, kappa, L234A L235A)
heavy 1: EIVLTQSPGTLSLSPGERATLSCRASQSVTSSYLAWYQQKPGQAPRLLINVGSRRATGIPDRFSGSGSGTDFTLTISRLEPEDFAVYYCQQGIMLPPTFGQGTKVEIKSSASTKGPSVFPLAPSSKSTSGGTAALGCLVKDYFPEPVTVSWNSGALTSGVHTFPAVLQSSGLYSLSSVVTVPSSSLGTQTYICNVNHKPSNTKVDKKVEPKSCDKTHTCPPCPAPEAAGGPSVFLFPPKPKDTLMISRTPEVTCVVVDVSHEDPEVKFNWYVDGVEVHNAKTKPREEQYNSTYRVVSVLTVLHQDWLNGKEYKCKVSNKALGAPIEKTISKAKGQPREPQVCTLPPSRDELTKNQVSLSCAVKGFYPSDIAVEWESNGQPENNYKTTPPVLDSDGSFFLVSKLTVDKSRWQQGNVFSCSVMHEALHNHYTQKSLSLSP
light 1: EVQLLESGGGLVQPGGSLRLSCAASGFTFSSYAMSWVRQAPGKGLEWVSAIIGSGASTYYADSVKGRFTISRDNSKNTLYLQMNSLRAEDTAVYYCAKGWFGGFNYWGQGTLVTVSSASVAAPSVFIFPPSDEQLKSGTASVVCLLNNFYPREAKVQWKVDNALQSGNSQESVTEQDSKDSTYSLSSTLTLSKADYEKHKVYACEVTHQGLSSPVTKSFNRGEC
heavy 2: not shown
light 2: not shown
notes: huIgG1 PG-LALA CrossFab 1+1; also called P1AE3140

EC50 (read off the curve) [9]: ~0.3 nM
B4: FAP-CD28SA 2+1 (P1AD5231) (bispecific antibody, human IgG1, kappa, L234A L235A)
heavy chain CD28(SA) VLCH1 - FAP(4B9) VHCH1 EE - Fc knob PGLALA: not shown
heavy chain FAP(4B9) VHCH1 EE - Fc hole PGLALA: EVQLLESGGGLVQPGGSLRLSCAASGFTFSSYAMSWVRQAPGKGLEWVSAIIGSGASTYYADSVKGRFTISRDNSKNTLYLQMNSLRAEDTAVYYCAKGWFGGFNYWGQGTLVTVSSASTKGPSVFPLAPSSKSTSGGTAALGCLVEDYFPEPVTVSWNSGALTSGVHTFPAVLQSSGLYSLSSVVTVPSSSLGTQTYICNVNHKPSNTKVDEKVEPKSCDKTHTCPPCPAPEAAGGPSVFLFPPKPKDTLMISRTPEVTCVVVDVSHEDPEVKFNWYVDGVEVHNAKTKPREEQYNSTYRVVSVLTVLHQDWLNGKEYKCKVSNKALGAPIEKTISKAKGQPREPQVCTLPPSRDELTKNQVSLSCAVKGFYPSDIAVEWESNGQPENNYKTTPPVLDSDGSFFLVSKLTVDKSRWQQGNVFSCSVMHEALHNHYTQKSLSLSP
CD28(SA) VHCL: QVQLVQSGAEVKKPGASVKVSCKASGYTFTSYYIHWVRQAPGQGLEWIGCIYPGNVNTNYNEKFKDRATLTVDTSISTAYMELSRLRSDDTAVYFCTRSHYGLDWNFDVWGQGTTVTVSSASVAAPSVFIFPPSDEQLKSGTASVVCLLNNFYPREAKVQWKVDNALQSGNSQESVTEQDSKDSTYSLSSTLTLSKADYEKHKVYACEVTHQGLSSPVTKSFNRGEC
FAP(4B9) VLCL RK: EIVLTQSPGTLSLSPGERATLSCRASQSVTSSYLAWYQQKPGQAPRLLINVGSRRATGIPDRFSGSGSGTDFTLTISRLEPEDFAVYYCQQGIMLPPTFGQGTKVEIKRTVAAPSVFIFPPSDRKLKSGTASVVCLLNNFYPREAKVQWKVDNALQSGNSQESVTEQDSKDSTYSLSSTLTLSKADYEKHKVYACEVTHQGLSSPVTKSFNRGEC
notes: monovalent for CD28, bivalent for FAP; also called Molecule G; FAP (4B9)-CD28 (SA) 2+1

binding result [10]: binds | EC50 [7]: 74.2 nM
B5: GPRC5D (5E11)-CD28 (SA_Variant 8) 1+1 format (Molecule 16B) (bispecific antibody, human IgG1, kappa, L234A L235A)
heavy 1: not shown
light 1: QVQLVQSGAEVKKPGASVKVSCKASGYTFTSYYIHWVRQAPGQGLEWIGSIYPGNVQTNYNEKFKDRATLTVDTSISTAYMELSRLRSDDTAVYFCTRSHYGLDFNFDVWGQGTTVTVSSASVAAPSVFIFPPSDEQLKSGTASVVCLLNNFYPREAKVQWKVDNALQSGNSQESVTEQDSKDSTYSLSSTLTLSKADYEKHKVYACEVTHQGLSSPVTKSFNRGEC
heavy 2: EVQLLESGGGLVQPGGSLRLSCAASGFTFSKYAMAWVRQAPGKGLEWVASISTGGVNTYYADSVKGRFTISRDNSKNTLYLQMNSLRAEDTAVYYCATHTGDYFDYWGQGTMVTVSSASTKGPSVFPLAPSSKSTSGGTAALGCLVEDYFPEPVTVSWNSGALTSGVHTFPAVLQSSGLYSLSSVVTVPSSSLGTQTYICNVNHKPSNTKVDEKVEPKSCDKTHTCPPCPAPEAAGGPSVFLFPPKPKDTLMISRTPEVTCVVVDVSHEDPEVKFNWYVDGVEVHNAKTKPREEQYNSTYRVVSVLTVLHQDWLNGKEYKCKVSNKALGAPIEKTISKAKGQPREPQVCTLPPSRDELTKNQVSLSCAVKGFYPSDIAVEWESNGQPENNYKTTPPVLDSDGSFFLVSKLTVDKSRWQQGNVFSCSVMHEALHNHYTQKSLSLSP
light 2: EIVLTQSPGTLSLSPGERATLSCRASQSVSISGINLMNWYQQKPGQQPKLLIYHASILASGIPDRFSGSGSGTDFTLTISRLEPEDFAVYYCQQTRESPLTFGQGTRLEIKRTVAAPSVFIFPPSDRKLKSGTASVVCLLNNFYPREAKVQWKVDNALQSGNSQESVTEQDSKDSTYSLSSTLTLSKADYEKHKVYACEVTHQGLSSPVTKSFNRGEC
notes: huIgG1 PG-LALA CrossFab; also called P1AF2954
